Source: paper PMC4476070
Like-named read-outs stand apart in the source and are kept apart here.

How the values were obtained:
[1] = molecular target: DMRT1 67-136 (Homo sapiens, UniProt Q9Y5R6 67-136); test: X-ray crystallography
[2] = molecular target: DMRT1 R123A (Homo sapiens, UniProt Q9Y5R6 1-373, R123A); test: EMSA
[3] = molecular target: DMRT1 R123Q (Homo sapiens, UniProt Q9Y5R6 1-373, R123Q); test: EMSA
[4] = molecular target: T1, DMRT1 full-length (Homo sapiens, UniProt Q9Y5R6 1-373); test: EMSA
T1 sequence (Q9Y5R6 whole entry): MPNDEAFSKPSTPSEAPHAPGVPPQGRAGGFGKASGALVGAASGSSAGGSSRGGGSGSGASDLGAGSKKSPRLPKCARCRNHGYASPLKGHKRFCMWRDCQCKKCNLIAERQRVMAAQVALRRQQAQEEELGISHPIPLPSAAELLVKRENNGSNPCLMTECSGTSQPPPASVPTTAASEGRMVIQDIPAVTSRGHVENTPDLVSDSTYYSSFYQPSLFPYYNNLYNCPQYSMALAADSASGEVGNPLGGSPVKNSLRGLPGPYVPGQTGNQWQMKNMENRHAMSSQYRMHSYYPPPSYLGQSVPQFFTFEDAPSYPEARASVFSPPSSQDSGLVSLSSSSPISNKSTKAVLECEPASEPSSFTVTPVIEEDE

[5] = molecular target: T2, SUMO-DMRT1 67-136 (Homo sapiens, UniProt Q9Y5R6 67-136); test: EMSA
T2 sequence (Q9Y5R6 67-136): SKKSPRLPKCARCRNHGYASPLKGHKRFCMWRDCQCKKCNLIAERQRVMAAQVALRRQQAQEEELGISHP

[6] = molecular target: T3, DMRT1 full-length;DMRT1 R111G (Homo sapiens;Homo sapiens, UniProt Q9Y5R6;Q9Y5R6 1-373;1-373, |R111G); test: EMSA
T3 sequence (Q9Y5R6 whole entry, stated change not applied, chain 1 of 2): as the sequence (Q9Y5R6 whole entry) above
T3 sequence (Q9Y5R6 whole entry R111G, chain 2 of 2): as the sequence (Q9Y5R6 whole entry) above, with R111G counted along it

[7] = molecular target: T3, DMRT1 full-length;DMRT1 R111G; test: EMSA; remark: listed apart in the source
[8] = molecular target: T1, DMRT1 full-length; test: EMSA; remark: listed apart in the source
[9] = molecular target: T1, DMRT1 full-length; test: EMSA; remark: listed apart in the source
[10] = molecular target: T2, SUMO-DMRT1 67-136; test: EMSA; remark: listed apart in the source

Chain of DMRT1 R123A (Q9Y5R6 whole entry R123A): as the sequence (Q9Y5R6 whole entry) above, with R123A counted along it
Chain of DMRT1 67-136 (Q9Y5R6 67-136): as the sequence (Q9Y5R6 67-136) above
Chain of DMRT1 R123Q (Q9Y5R6 whole entry R123Q): as the sequence (Q9Y5R6 whole entry) above, with R123Q counted along it

B1: Site 1 crystal 25-mer (dsDNA)
DNA 1: CGAGATTTGATACATTGTTGCTCGA
DNA 2: TCGAGCAACAATGTATCAAATCTCG
Question: Does B1 bind [1]?
Answer: binds

B2: Site 1 (49 bp) (dsDNA)
DNA 1: GTGGCTGGGCAGAGATTTGATACATTGTTGCTCGATGGAGGTCAGGTCT
DNA 2: AGACCTGACCTCCATCGAGCAACAATGTATCAAATCTCTGCCCAGCCAC
Question: Does B2 bind [2]?
Answer: no binding

Question: Does B2 bind [3]?
Answer: no binding

B3: Site 1 (27 bp) (dsDNA)
DNA 1: GAGATTTGATACATTGTTGCTCGATGG
DNA 2: CCATCGAGCAACAATGTATCAAATCTC
Question: Which results are given for B3?
Answer: binding result [4]: binds; binding result [5]: binds; binding result [6]: binds

B4: Sox9 site (dsDNA)
DNA 1: GTGGCTGGGCACCCTGCAGAGACAATGTTTCCAGCTGCAGGTCAGGTCT
DNA 2: AGACCTGACCTGCAGCTGGAAACATTGTCTCTGCAGGGTGCCCAGCCAC
Question: What does the source list for B4?
Answer: binding result [4]: binds; binding result [7]: binds

B5: Site 2 (27 bp) (dsDNA)
DNA 1: GAGATTTGATACATTGTTACTTTATGG
DNA 2: CCATAAAGTAACAATGTATCAAATCTC
Question: Does B5 bind [8]?
Answer: binds

B6: Site 3 (27 bp) (dsDNA)
DNA 1: GAGATTTGATACATTATTAATTTATGG
DNA 2: CCATAAATTAATAATGTATCAAATCTC
Question: Does B6 bind [9]?
Answer: binds

B7: Site 4 (27 bp) (dsDNA)
DNA 1: TTGCTATGATACATTGTATCTTGCTGG
DNA 2: CCAGCAAGATACAATGTATCATAGCAA
Question: Does B7 bind [10]?
Answer: binds
